Assay results from US12098176B2, “Keratin BD-4, preparation method, and pharmaceutical composition and use thereof” (Institute of Materia Medica, Chinese Academy of Medical …, priority 2019, dated 2024).

How the values were obtained:
[1] = tested on: yeast-induced fever model in rats; assay: Yeast-induced fever model in SD rats; assay type: in vivo, rat; conditions: for Body temperature 2 hours after modeling: 2 h after 20% yeast s.c.; for Body temperature 4 hours after modeling: 4 h after 20% yeast s.c.; for Body temperature 6 hours after modeling: 6 h after 20% yeast s.c.; for Body temperature 8 hours after modeling: 8 h after 20% yeast s.c.; for Effect on increase in body temperature of model rats: vs model group P<0.05
Method: Experimental example 1 The pharmacodynamic test of protein BD-4 (the protein in Example 4) on the fever model of SD rats induced by yeast
• Normal control group; • Model group: yeast fever model; • Positive control group: Aspirin 300 mg/kg group; • Protein BD-4, 10 mg/kg group, 50 mg/kg group. Method:
(§1) Preparation of experimental animals: After the experimental animals adapt to the experimental environment (temperature 22° C.±2° C., relative humidity 50%±2%) for 1 day. Pre-adaptation to measure rectal temperature at 8:00 and 15:00, Rats were fasted and water was taken freely 12 h before experiment. let the animal to empty its feces before measuring the rectal temperature. Apply petroleum jelly to the electronic thermometer probe before each temperature measurement. Insert the rat rectum 2 cm (can be marked at 2 cm to ensure that the depth of each insertion is consistent), and record the body temperature after the reading is stable.
(§2) Subcutaneous injection of dry yeast to replicate rat fever model: The body temperature of the rats was measured before modeling. Qualified rats with a body temperature of 36.2-37.3° C. were selected and randomly divided into groups with 8 rats in each group. After oral administration of aspirin and different doses of protein BD-4, 20% yeast suspension (10 ml/kg) was injected subcutaneously immediately, and the normal control group was injected intraperitoneally with an equal volume of normal saline. the rats' body temperature was monitored after 2 hours for a total of 8 hours.
(§3) According to the body temperature measured at each time point on the day of the experiment, calculate the mean, standard deviation and standard error of the body temperature of each group of rats. The data of each group was compared with TTEST, and P<0.05 was considered as a significant difference.

[2] = tested on: mice cough induced by ammonia water; assay: Antitussive test, cough induced by ammonia water in mice; assay type: in vivo, mouse; conditions: for Incubation period: cough latency; for Incubation period / Number of coughs: X ± SEM; for Number of coughs: within 2 minutes
Method: Experimental example 6 The effect of protein BD-4 (Example 4 protein) on the antitussive effect of the cough induced by ammonia water in mice. Animals: male ICR mice; Drugs and reagents: dextromethorphan hydrobromide, ammonia, 0.2% CMC-Na, protein BD-4; Apparatus: Compressed nebulizer (403T type), balance (XS105DU type). Experiment Grouping: • Solvent control group; • Dextromethorphan 15 mg/kg group; • Protein BD-4, 20 mg/kg group, 50 mg/kg group. Method: Model Preparation and Administration:
Dextromethorphan and different doses of protein BD-4 (administration volume 10 ml/kg) were given orally in groups, and the solvent control group was given the same volume of distilled water. One hour later, it was put into a sealed box and atomized 10% ammonia water for 10 seconds, and then observed and recorded the incubation period of cough in mice and the number of coughs in 2 minutes.
Record the time point of oral administration, the time point of atomization experiment, the incubation period of mice cough and the number of coughs within 2 minutes, respectively. The incubation period of cough refers to the number of seconds from the start of the atomization of ammonia to the occurrence of cough. The performance of coughing in mice is based on contraction of their abdominal muscles (breast contraction) and opening their mouths at the same time. Calculate the mean and standard error of each group of data, use TTEST to compare the model group with other groups, and P<0.05 is considered as a significant difference.

[3] = tested on: acetic acid writhing of ICR mice; assay: Acetic acid writhing test in ICR mice; assay type: in vivo, mouse; conditions: for Number of twists / Writhing latency: 0.6% acetic acid i.p., within 15 minutes
Method: Experimental example 7 The pharmacodynamic test of protein BD-4 (Example 4 protein) on acetic acid writhing in ICR mice. Animals: male ICR mice; Drugs and reagents: aspirin, physiological saline, glacial acetic acid, protein BD-4. Experiment Grouping:
One day after the experimental animals adapt to the environment, Aspirin 300 mg/kg, protein BD-4 50 mg/kg, 200 mg/kg were given orally one hour in advance, and the administration volume was 10 ml/kg; Then, 0.6% acetic acid solution was injected into the abdominal cavity, and the latency period (seconds) and frequency of writhing in the animal was observed within 15 minutes.
Calculate the mean and standard error of the data in each group. Compared with the model group by TTEST, P<0.05 was considered as statistically different.
0.6% acetic acid solution was injected into the abdominal cavity of mice, which caused deep and large area and long-term painful stimulation, causing the mice to writhe (the abdomen was contracted into an “S” shape, the trunk and hind legs were stretched, the buttocks were raised and the hips Row). The incubation time and the number of times the mice began to writhe were used as the pain response index to determine whether the test sample had analgesic effect. […] Compared with the model group, P<0.05, which is statistically significant.

[4] = tested on: lipopolysaccharide (LPS) induced fever in rats; assay: Lipopolysaccharide (LPS) induced fever in SD rats; assay type: in vivo, rat; conditions: for Body temperature 2 hours after modeling: 2 h after LPS 20 μg/kg i.p.; for Body temperature 4 hours after modeling: 4 h after LPS 20 μg/kg i.p.; for Body temperature 6 hours after modeling: 6 h after LPS 20 μg/kg i.p.; for Body temperature 8 hours after modeling: 8 h after LPS 20 μg/kg i.p.
Method: Experimental example 2 The pharmacodynamic test of protein BD-4 (Example 4 protein) on lipopolysaccharide (LPS) induced fever in SD rats.
Experiment Grouping: • Model group: lipopolysaccharide fever model; • Positive control group: Aspirin 300 mg/kg group, • Protein BD-4, 10 mg/kg group, 50 mg/kg group. Method: the method of intraperitoneal injection of Lipopolysaccharide to create fever model in rats.
as §1, with “experiment. before the experiment,” for “experiment.”
as §2, with “Intraperitoneal” for “Subcutaneous”, “lipopolysaccharide” for “dry yeast”, “lipopolysaccharide (20 μg/kg, 2” for “20% yeast suspension (10”, “intraperitoneally” for “subcutaneously”
as §3

B1: BD-4: recombinant keratin, amino acid sequence SEQ ID NO: 1, expressed in E. coli; the protein of Example 4 was tested (protein, listed as Bos taurus)
chain: MSYSCCLPNLSFRSSCSSRPCVPSSCCGTTLPGACNIPANVGSCNWFCEGSFNGSEKETMQFLNDRLASYLEKVRQLERDNAELESRILERSQQQEPLVCPNYQSYFRTIEELQQKILCSKSENARLVVQIDNAKLASDDFRTKYETEVSLRQLVEADLNGLRRILDELTLCKSDLEARVESLKEELICLKQNHEQEVNTLRSQLGDRLNVEVDAAPTVDLNRVLNETRAQYEALVETNRRDVEEWYIRQTEELNKQVVSSSEQLQSYQAEIIELRRTVNALEVELQAQHNLRDSLENTLTETEARYSCQLAQVQGLIGNVESQLAEIRSDLERQNQEYQVLLDVRARLECEINTYRGLLDSEDCKLPCNPCATTNACERPCISNPCVSRARCGPCNTFVH
Body temperature 2 hours after modeling ([1]; 10 mg/kg oral): 36.7 ± 0.1 °C
Body temperature 4 hours after modeling ([1]; 10 mg/kg oral): 37.1 ± 0.1 °C
Body temperature 6 hours after modeling ([1]; 10 mg/kg oral): 37.6 ± 0.1 °C
Body temperature 8 hours after modeling ([1]; 10 mg/kg oral): 37.6 ± 0.2 °C
Effect on increase in body temperature of model rats ([1]; 10 mg/kg, 4 hour after modeling): significantly inhibit the increase in body temperature
Body temperature 2 hours after modeling ([1]; 50 mg/kg oral): 36.6 ± 0.1 °C
Body temperature 4 hours after modeling ([1]; 50 mg/kg oral): 37.4 ± 0.1 °C
Body temperature 6 hours after modeling ([1]; 50 mg/kg oral): 37.5 ± 0.1 °C
Body temperature 8 hours after modeling ([1]; 50 mg/kg oral): 37.6 ± 0.1 °C
Effect on increase in body temperature of model rats ([1]; 50 mg/kg, 8 hours after modeling): significantly inhibit the increase in body temperature
Incubation period ([2]; 20 mg/kg oral): 34.0 ± 2.4 s
Number of coughs ([2]; 20 mg/kg oral): 55.9 ± 3.5
Cough incubation period vs solvent control group ([2]; 20 mg/kg, P<0.05): significant improvement
Number of coughs vs solvent control group ([2]; 20 mg/kg, P<0.05): significant improvement
Incubation period ([2]; 50 mg/kg oral): 33.2 ± 3.9 s
Number of coughs ([2]; 50 mg/kg oral): 62.1 ± 3.7
Number of coughs vs solvent control group ([2]; 50 mg/kg, P<0.05): significant improvement
Number of twists ([3]; 50 mg/kg oral): 16.9 ± 3.7 times
Writhing latency ([3]; 50 mg/kg oral): 315.2 ± 66.3 s
Number of writhing times vs model group ([3]; 50 mg/kg, P<0.05): significantly reduce the number of writhing times
Number of twists ([3]; 200 mg/kg oral): 25.1 ± 3.3 times
Writhing latency ([3]; 200 mg/kg oral): 220.1 ± 16.6 s
Effect on body temperature of model rats ([4]; 10 mg/kg and 50 mg/kg, after modeling): tendency to lower the body temperature of model rats after modeling, but it is not statistically significant
Body temperature 2 hours after modeling ([4]; 10 mg/kg oral): 37.7 ± 0.1 °C
Body temperature 4 hours after modeling ([4]; 10 mg/kg oral): 37.8 ± 0.l
Body temperature 6 hours after modeling ([4]; 10 mg/kg oral): 37.8 ± 0.2 °C
Body temperature 8 hours after modeling ([4]; 10 mg/kg oral): 37.5 ± 0.2 °C
Body temperature 2 hours after modeling ([4]; 50 mg/kg oral): 37.6 ± 0.2 °C
Body temperature 4 hours after modeling ([4]; 50 mg/kg oral): 37.7 ± 0.2 °C
Body temperature 6 hours after modeling ([4]; 50 mg/kg oral): 37.6 ± 0.2 °C
Body temperature 8 hours after modeling ([4]; 50 mg/kg oral): 37.5 ± 0.1 °C
